Data as given in patent US12098378B2, “Anti-fungal polypeptides” (priority 2020, dated 2024).

Key:
Botrytis cinerea R16 = experiment: In vitro antifungal assay, IncuCyte Zoom monitoring of fungal growth from spore suspension; type: cell-based; conditions: confluence at mid log growth, four-parameter logistic regression (FIG. 1); read-out: IC50, concentration that inhibits 50% of spore germination and/or mycelial growth
Description: (§1) Two-fold dilutions of purified VHH 10G11Q were prepared in 96-well microtiter plates. To 20 μl of these dilutions and to 20 μl of water as a control, 80 μl of fungal spore suspension (1 E+05 spores/ml in half strength potato dextrose broth (PDB)) were added, starting with a final VHH 10G11Q concentration of 10 μM. The test plates were incubated for 36 h at 25° C. using the IncuCyte Zoom live cell imaging system. All tests were performed in at least 2 replicates.
as §1, with “VHH 10G11Q and 41D01 were prepared” for “VHH 10G11Q were prepared”, “concentration of 40 μM. The” for “concentration of 10 μM. The”, “incubated for 48 h at” for “incubated for 36 h at”
Microplate graphs were generated using the time plot feature in the graph/export menu of the IncuCyte® Base Analysis Software. Raw data for confluence of treated samples at mid log growth were exported to GraphPad Prism 8 and plotted as a semi logarithmic function of the standard concentrations. IC50 values are extrapolated after fitting the data with a four-parameter logistic regression curve. Pathogen sensitivity is measured based on the IC50, which refers to the concentration (μM) that inhibits 50% of spore germination and/or mycelial growth.

Fraction 3 = experiment: Bio-layer interferometry (BLI) binding; parameters: species or system Botrytis cinerea; conditions: compared to a reference VHH (FIG. 12)
Excerpt: 10G11 binding to Fraction 3 was further confirmed by bio-layer interferometry (BLI). BLI is a label-free optical analytical technique for measuring biomolecular interactions (Kamat et al, 2017. Analytical biochemistry 536: 16-31; Wallner et al. 2013. Journal of Pharmaceutical and Biomedical Analysis 72: 150-154).

Botrytis cinerea [1] = experiment: Control of Botrytis cinerea on grapevine in field; type: in vivo; conditions: 250, 500, 750 g ai/ha, 4 applications; until 20 days after the last application (FIG. 19)
Description: Four replicates of 10 vines (33.6 m^2 per plot) were treated with 8 l of spray solution, corresponding with a spray volume of […], according to local practice. The spray mix contained a concentration of active ingredient as described in Table 3. Four applications were done at specific phenological development stages of the vines: BBCH 77, BBCH 79, BBCH 81 and BBCH 85 (according to the standardised BBCH-scale). No artificial infection was performed, and first spray was placed preventative, based on forecasted disease pressure. The efficacy of 10G11 was compared to that of a non-treated control and the chemical reference Teldor (Fenhexamid). In addition, a chemical rotation of Switch (Fludioxonil+cyprodinil) and Teldor and a rotation of Switch and 10G11 was tested.
Disease severity is recorded as percent severity on a scale of 0-100% (PESSEV). Recording started when first symptoms appeared, just prior to the fourth application. Additional assessments were performed 13 and 20 days after the last application. At each assessment, the percentage of grape bunch surface affected by the disease was estimated on 100 randomly selected bunches per plot.

Oidium neolycopersici = experiment: Control of powdery mildew on tomato; type: in vivo; conditions: 250, 500, 750 g ai/ha, 5 applications, until one week after the last application
Description: Four replicates of 15 tomato plants (9.9 m^2 per plot) were treated with […] of spray solution, corresponding with a spray volume of […], according to local practice. The spray mix contained a concentration of active ingredient as described in Table 5. Five applications were performed spaced 7 days apart. No artificial infection was performed and first spray was placed when first symptoms were observed. The efficacy of 10G11 was compared to that of a non-treated control and the chemical reference Topas (Penconazole). In addition, a chemical rotation of Systhane Forte (Myclobutanil), Ortiva (Azoxystrobin), Signum (Boscalid. Pyraclostrobin) and Topas was evaluated. A seventh treatment replaced part of the chemicals in this chemical rotation by 10G11 as described in Table 5.
The percentage of leaf area affected by the disease (disease severity) was recorded in 10 randomly selected leaves per plot. Percentage incidence (PESINC; % of affected leaves), was calculated based on these values. Assessments were performed on a weekly basis and continued until 1 week after the last application.

Botrytis cinerea [2] = experiment: Control of Botrytis cinerea on strawberry, at harvest and postharvest; type: in vivo
Description: Four replicates of 20 strawberry plants ([…] per plot) were treated with 0.576 or 0.72 l of spray solution, corresponding with a spray volume of […], according to local practice. The spray mix contained a concentration of active ingredient as described in Table 7. Six applications were performed spaced 7 days apart. No artificial infection was performed and first spray was placed at the onset of flowering. The efficacy of 10G11 was compared to that of a non-treated control and the chemical reference Teldor (Fenhexamid). In addition, a chemical rotation of Switch (Cyprodinil+Fludioxonil), Teldor (Fenhexamid) and Scala (Pyrimethanil) was evaluated. A seventh treatment replaced part of the chemicals in this chemical rotation by 10G11 as described in Table 7.
Efficacy assessments were performed on fruits at harvest and the number and weight of healthy and diseased fruits was evaluated. Per plot, 50 healthy fruits were then placed into cold storage (2° C.) for two days, after which the postharvest assessment continued for 5 more days at ambient temperature ([…]). Botrytis incidence and severity on stored fruits was assessed at 0, 2 and 5 days at ambient storage.

Podosphaera xanthii = experiment: Control of powdery mildew on cucumber in greenhouse; type: in vivo
Description: Four replicates of 10 plants per plot of cucumber plants (4 m^2 per plot) were treated with a spray volume between 1000 and 18751/ha depending on the crop height. The spray mix contained a concentration of active ingredient as described in Table 8. Eight applications were performed spaced 7 days apart. No artificial infection was performed and first spray was placed at the onset of flowering. The efficacy of 10G11 was compared to that of a non-treated control, a chemical reference Topaz (Penconazole), a biological reference Sonata (Bacillus pumilis strain QST 2808) in combination with the adjuvant Elasto G5 and a chemical rotation of Takumi (Cyflufenamid), Flint (Trifloxystrobin) and Topaz.
Efficacy assessments were performed on 40 leaves per plot, assessing the percentage of leaf area affected (PESSEV). Assessments were performed on a weekly basis and continued until two weeks after the last application.

B1: 10G11: VHH polypeptide, SEQ ID NO: 2, begins with a D residue (protein)
VHH: DVQLVESGGGLVQAGGSLRLSCAASRSIFSINAMDWYRQAPGKQREWVAGITRGGTTKYADSVKGRFTISRDNAKKKVYLQMNSLKPEDTAVYYCNVLRGEQPWTRDYWGQGTQVTVSS
- IC50 (Botrytis cinerea R16): 760 ± 100 nM
- binding to Fraction 3 by BLI (Fraction 3): confirmed binding
- percent severity (PESSEV) of Botrytis cinerea on grape bunches (Botrytis cinerea [1]): clear and dose-related performance
- severity of powdery mildew on tomato (percentage of leaf area affected) (Oidium neolycopersici; mild disease pressure (FIG. 22)): clear and dose-related performance
- incidence (PESINC) of powdery mildew on tomato (Oidium neolycopersici; mild disease pressure (FIG. 23)): clear and dose-related performance
- Botrytis infected strawberry fruits at harvest (Botrytis cinerea [2]; 250, 500, 750 g ai/ha, 6 applications in the field during flowering (FIG. 26)): reduced incidence of Botrytis at harvest
- Botrytis severity on strawberry fruits in postharvest (Botrytis cinerea [2]; stored fruits, 2 days at 2° C. then 0, 2 and 5 days at ambient storage (FIG. 27)): dose-related reduction of Botrytis severity on stored fruits
- severity (PESSEV) of powdery mildew on cucumber (Podosphaera xanthii; 125, 250, 500 g ai/ha LWA, until 1 week after the seventh application (FIG. 28)): clear and dose-related performance
- severity (PESSEV) of powdery mildew on cucumber (Podosphaera xanthii; from the eighth application, very severe disease pressure (FIG. 28)): Performance decreased
